Measured values as given in the supplement of paper PMC10724198.
± gives the standard deviation of the averaged measurements.

How the values were obtained:
Saccharomyces cerevisiae [1] = test: protein stability index of tFT-peptide fusion (C-terminal peptide) (PSI (0-1 scale)); higher = more stable (slower turnover); settings: genetic background: wild type; temperature: 30 C
Saccharomyces cerevisiae [2] = test: as above
Protocol: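 MPS profiling in S. cerevisiae of the tFT-X12 degron library: putative degron peptides plus stable controls, 12 aa, fused to the C-terminus of a sfGFP-mCherry timer. Cells are FACS-sorted into 8 mCherry/sfGFP bins and deep-sequenced. PSI runs from 0 (unstable) to 1 (stable). Backgrounds are wild type, das1Δ and doa10Δ at 30 °C, and wild type, das1Δ, cdc34-1 and cdc53-1 at 37 °C; 2-3 technical replicates each.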

[3] = genetic background: cdc34-1, temperature: 37 C
[4] = genetic background: cdc53-1, temperature: 37 C
[5] = genetic background: das1 deletion, temperature: 30 C
[6] = genetic background: das1 deletion, temperature: 37 C
[7] = genetic background: doa10 deletion, temperature: 30 C
[8] = genetic background: wild type, temperature: 30 C
[9] = genetic background: wild type, temperature: 37 C
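Further: PSI is a weighted mean of sequencing reads over stability bins, variants kept only with over 10 reads, mCherry proximal and sfGFP distal, peptide attached via GGGS linker.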

Row | Sequence | protein stability index (Saccharomyces cerevisiae [1]) | protein stability index (Saccharomyces cerevisiae [2]; [3]) | protein stability index (Saccharomyces cerevisiae [2]; [4]) | protein stability index (Saccharomyces cerevisiae [2]; [5]) | protein stability index (Saccharomyces cerevisiae [2]; [6]) | protein stability index (Saccharomyces cerevisiae [2]; [7]) | protein stability index (Saccharomyces cerevisiae [2]; [8]) | protein stability index (Saccharomyces cerevisiae [2]; [9])
1 | CFFILSLMVVVI | 0.194 ± 0.054 | 0.0733 ± 0.0068 | 0.16 ± 0.027 | 0.12 ± 0.029 | 0.229 ± 0.0071 | 0.0944 ± 0.0056 | 0.0999 ± 0.03 | 0.183 ± 0.0091
2 | CFFLSFNVFRLF | 0.148 ± 0.05 | 0.465 ± 0.059 | 0.559 ± 0.011 | 0.498 ± 0.034 | 0.633 ± 0.022 | 0.107 ± 0.0097 | 0.114 ± 0.033 | 0.113 ± 0.0019
3 | CFVISVLFFFVG | 0.444 ± 0.025 | 0.292 ± 0.011 | 0.491 ± 0.035 | 0.288 ± 0.035 | 0.467 ± 0.015 | 0.284 ± 0.024 | 0.286 ± 0.013 | 0.436 ± 0.03
4 | CFVLVVCIPVMV | 0.31 ± 0.035 | 0.2 ± 0.0041 | 0.247 ± 0.033 | 0.198 ± 0.023 | 0.3457 ± 0.0017 | 0.18 ± 0.009 | 0.207 ± 0.024 | 0.3279 ± 0.0019
5 | EGREGGGRGEVL |  | 0.455 ± 0.011 | 0.589 ± 0.04 | 0.471 ± 0.029 | 0.496 ± 0.03 | 0.482 ± 0.024 | 0.479 ± 0.011 | 0.472 ± 0.013
6 | FSQGFRSPSECL |  | 0.712 ± 0.03 | 0.764 ± 0.014 | 0.63 ± 0.016 | 0.765 ± 0.036 | 0.647 ± 0.011 | 0.655 ± 0.023 | 0.7608 ± 0.0072
7 | FVVVVVWVSRGL |  | 0.174 ± 0.0059 | 0.399 ± 0.05 | 0.214 ± 0.036 | 0.423 ± 0.008 | 0.172 ± 0.029 | 0.196 ± 0.048 | 0.383 ± 0.023
8 | GGRREWCRGGGV |  | 0.635 ± 0.11 | 0.746 ± 0.034 | 0.555 ± 0.029 | 0.695 ± 0.03 | 0.544 ± 0.0089 | 0.546 ± 0.015 | 0.708 ± 0.03
9 | RWCLVWGGVWGV |  | 0.593 ± 0.03 | 0.68 ± 0.025 | 0.494 ± 0.029 | 0.674 ± 0.02 | 0.486 ± 0.013 | 0.5 ± 0.017 | 0.645 ± 0.011
10 | SSLRATLLIRAV |  | 0.543 ± 0.023 | 0.564 ± 0.011 | 0.44 ± 0.019 | 0.584 ± 0.0032 | 0.352 ± 0.025 | 0.371 ± 0.032 | 0.5171 ± 0.0041
11 | VLLCGRMVVVEW |  | 0.0831 ± 0.0095 | 0.163 ± 0.0037 | 0.163 ± 0.01 | 0.143 ± 0.011 | 0.196 ± 0.032 | 0.153 ± 0.014 | 0.132 ± 0.021
12 | WQIDVWDSNCVM | 0.692 ± 0.027 |  |  |  |  |  |  | 
13 | WQWDMESKRKKE | 0.7056 ± 0.0026 |  |  |  |  |  |  | 
14 | WRFTSCCPDPAT | 0.772 ± 0.076 |  |  |  |  |  |  | 
15 | WRLDDPTLISNI | 0.693 ± 0.032 |  |  |  |  |  |  | 
16 | WRMGCSVRGVVG | 0.693 ± 0.055 |  |  |  |  |  |  | 
17 | WRPVSVVSPLSD | 0.677 ± 0.081 |  |  |  |  |  |  | 
18 | WRSSSFFPAAVG | 0.6715 ± 0.0042 |  |  |  |  |  |  | 
19 | WRVDKREPPGRL | 0.707 ± 0.034 |  |  |  |  |  |  | 
20 | WSGDLRNIEFAR | 0.816 ± 0.1 |  |  |  |  |  |  | 
21 | WSGQWCRGRAGG | 0.706 ± 0.018 |  |  |  |  |  |  | 
22 | WSGWGYGISALL | 0.681 ± 0.047 |  |  |  |  |  |  | 
23 | WSIEESLGIWLR | 0.538 ± 0.021 |  |  |  |  |  |  | 
24 | WSLPILPPPSPD | 0.663 ± 0.032 |  |  |  |  |  |  | 
25 | WSQDRLFLGFGC | 0.875 ± 0.038 |  |  |  |  |  |  | 
